Residue numbers refer to the chain shown, from its start. Blank lines part the entries; values can stand above or below the binder they belong to.
Legend:
[1] = target: T1, NY-ESO-1 peptide on HLA-A*02:01 (human); assay: multimer staining
T1 peptide: SLLMWITQC

[2] = target: T1, NY-ESO-1 peptide on HLA-A*02:01; assay: activation reporter or marker
Experimental: NY7 variant TCRs isolated by the work flow above were then functionally tested for potency and specificity. TCRs were expressed in Jurkat cells using a lentivirus vector, and TCR-expressing Jurkat cells were co-cultured with T2 cells and a varying dose of the NY-ESO-1 peptide. Activation was measured by luminescence using an NFAT-Luciferase reporter.

binding result [1]: recognises
B1: NY7JSY (TCR, V domains shown)
Valpha: QKEVEQNSGPLSVPEGAIASLNCTYSDRGSQSFFWYRQYSGKSPELIMFIYSNGDKEDGRFTAQLNKASQYVSLLIRDSQPSDSATYLCAVMRAGGFKTIFGAGTRLFVKA
Vbeta: DSGVTQTPKHLITATGQRVTLRCSPRSGDLSVYWYQQSLDQGLQFLIQYYNGEERAKGNILERFSAQQFPDLHSELNLSSLELGDSALYFCASSVVDGEQYFGPGTRLTVT

binding result [2]: recognises
B2: NY7 variant, Table A TCR ID 5 (TCR, V domains shown)
Valpha: B1 Valpha with G29W
Vbeta: B1 Vbeta
